Results reported in US20240238445A1, “INHIBITORS AND USES THEREOF” (NEURACLE SCIENCE CO., LTD., priority 2021, published 2024).

B1: LRRC4B (453-576): LRRC4B ectodomain fragment, amino acids 453-576 of SEQ ID NO: 2; FLAG-tagged or hFc-fused (protein)
chain: VSAVDPVAAGGTGSGGGGPGGSGGVGGGSGGYTYFTTVTVETLETQPGEEALQPRGTEKEPPGPTTDGVWGGGRPGDAAGPASSSTTAPAPRSSRPTEKAFTVPITDVTENALKDLDDVMKTTK
modifications: FLAG tag or human Fc
notes: FLAG-tagged or hFc-fused

Columns and labels:
[1] = molecular target: binding of FAM19A5 protein to full-length ectodomain of LRRC4 protein (Homo sapiens, UniProt Q7Z5A7); assay: Competitive inhibition assay, plate coated with full-length ectodomain of LRRC4; details: FAM19A5 5 ng/mL; 100 nM/well coat
Description: As described in Example 3, there appeared to be much similarity in the binding domains of the different members of the LRRC4 family. […] Then, recombinant FAM19A5 protein (5 ng/mL) was added in combination with one of the following: (i) LRRC4B (484-576) protein fragment, (ii) LRRC4B (453-576, AA) protein fragment, and (iii) synthetic FB-20 peptide. The plates were incubated at 37° C., and then, the amount of FAM19A5 protein bound to the coated LRRC4, LRRC4B, or LRRC4C proteins was measured using anti-FAM19A5 (1-65) antibody.

[2] = molecular target: T1, FAM19A5 isoform 2 - LRRC4B protein complex in HEK293 cells (Homo sapiens, UniProt Q7Z5A7); assay: Immunofluorescence: dissociation of FAM19A5 from full-length LRRC4B in HEK293 cells; format: cell-based; details: HEK293 cells expressing FAM19A5 isoform 2 and LRRC4B, treated 30 minutes
T1 construct: expressed in transfected cells; host or cells: HEK293
Description: Since LRRC4B protein fragments containing the binding domain described in Example 2 (e.g., LRRC4B (453-576); i.e., construct #11 in Table 6) was able to bind to FAM19A5 protein with high affinity, it was next assessed whether such protein fragments could compete with naturally existing LRRC4B protein for binding to FAM19A5 protein, and thereby, dissociate the FAM19A5-LRRC4 protein family complex. Briefly, HEK293 cells expressing both FAM19A5 isoform 2 and LRRC4B protein were treated in vitro for 30 minutes with either LRRC4B (453-576)-hFc or mutant LRRC4B (453-576)-hFc (includes alanine substitutions at positions 488 and 489 of SEQ ID NO: 2; SEQ ID NO: 16) protein fragments. Then, cells were immunostained with anti-FAM19A5 (1-65) and anti-LRRC4B antibodies to determine the expression of FAM19A5 and full-length LRRC4B proteins, respectively. The hFc-fused LRRC4B protein fragments were determined using an anti-hIgG antibody. The nuclei were stained with Hoechst 33342.

[3] = test system: APP/PS1 mice (Alzheimer mouse model); assay: Synaptic formation in hippocampal CA1 and CA3 of APP/PS1 mice; format: in vivo; details: 30 mg/kg intravenous, four consecutive weeks, compared to mutant LRRC4B protein fragment
Description: FIGS. 16A, 16B, and 16C show the ability of LRRC4B peptide fragment (amino acid residues 453-576 of SEQ ID NO: 2; “WT”) (i.e., SEQ ID NO: 7) to promote synaptic formation in the hippocampal CA1 of APP/PS1 mice. As further described in Example 8, APP/PS1 mice were treated with the LRRC4B peptide fragment (30 mg/kg; intravenous administration) for four consecutive weeks, and then synaptic formation was assessed by fluorescence microscopy using antibodies against SYP and PSD95. Control animals received no treatment (“Cont”) or the mutant LRRC4B peptide fragment […] (i.e., comprising alanine substitutions at positions 488 and 489 of SEQ ID NO: 2; SEQ ID NO: 16). FIG. 16A provides representative fluorescent photomicrographs. FIGS. 16B and 16C show the SYP and PSD95 intensity, respectively.
FIGS. 17A, 17B, and 17C show the ability of LRRC4B peptide fragment (amino acid residues 453-576 of SEQ ID NO: 2; “WT”; SEQ ID NO: 7) to promote synaptic formation in the hippocampal CA3 of APP/PS1 mice. The animals were treated and analyzed as described in FIGS. 16A-16C. FIG. 17A provides representative fluorescent photomicrographs. FIGS. 17B and 17C show the SYP and PSD95 intensity, respectively.
Additionally, to confirm the above effect on neurite outgrowth in vivo, APP/PS1 mice (Alzheimer mouse model) were used. […] Hong et al., Science 352(6286): 712-716 (May 2016). […]

Sequence of binding of FAM19A5 protein to full-length ectodomain of LRRC4 protein (Q7Z5A7 44-132): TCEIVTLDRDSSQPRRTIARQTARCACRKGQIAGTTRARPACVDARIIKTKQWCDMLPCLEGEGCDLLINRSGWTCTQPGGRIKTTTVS
T1 sequence (Q7Z5A7 1-125 isoform Q7Z5A7-2, one chain of several): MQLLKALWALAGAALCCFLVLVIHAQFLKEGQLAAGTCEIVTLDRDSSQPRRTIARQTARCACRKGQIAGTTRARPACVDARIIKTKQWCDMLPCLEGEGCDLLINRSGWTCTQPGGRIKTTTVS

Row | Molecule | inhibition of FAM19A5 binding to coated LRRC4 protein (in words) [1] | dissociation of FAM19A5 from full-length LRRC4B protein [2] | SYP and PSD95 immunoreactivities in CA1 and CA3 [3]
1 | GYTYFTTVTVETLETQPGEE [FB-20] | able to inhibit FAM19A5 protein from binding |  | 
2 | B1 |  | largely dissociated from the full-length LRRC4B protein | increased SYP and PSD95 immunoreactivities in CA1 and CA3
